Data reported in patent US20140271653A1 (Regeneron, published 2014).
Substitutions are numbered along the chain they refer to.

B1: Control I (palivizumab sequence) (antibody, V domains shown)
VH: QVTLRESGPALVKPTQTLTLTCTFSGFSLSTSGMSVGWIRQPPGKALEWLADIWWDDKKDYNPSLKSRLTISKDTSKNQVVLKVTNMDPADTATYYCARSMITNWYFDVWGAGTTVTVSS
VL: DIQMTQSPSTLSASVGDRVTITCKCQLSVGYMHWYQQKPGKAPKLLIYDTSKLASGVPSRFSGSGSGTEFTLTISSLQPDDFATYYCFQGSGYPFTFGGGTKLEIKR
notes: also called Control 1; SYNAGIS
B2: Control II (motavizumab sequence) (antibody, V domains shown)
VH: B1 VH with S32A, D60H, S67D, S100D, T103F, W105F, A112Q
VL: B1 VL with K24S, C25A, Q26S, L27S, S28R, L103V

What was measured:
[1] = target: T1, RSV-F of RSV subtype A strain A2 (1540) (respiratory syncytial virus subtype A, …, UniProt P03420 26-574); test: cell-based or functional assay
[2] = target: T1, RSV-F of RSV subtype A strain A2 (1540); test: cell-based or functional assay; remark: listed apart in the source
[3] = target: T1, RSV-F of RSV subtype A strain A2 (1540); test: cell-based or functional assay; remark: listed apart in the source
[4] = target: T2, RSV-F of RSV subtype A strain Long (respiratory syncytial virus subtype A, …, UniProt P12568 26-574); test: cell-based or functional assay
[5] = target: T3, RSV-F of RSV subtype B strain 1580 (respiratory syncytial virus subtype B, …); test: cell-based or functional assay
[6] = target: T4, RSV-F of RSV subtype B strain 9320 (respiratory syncytial virus subtype B, …); test: cell-based or functional assay
[7] = target: T1, RSV-F of RSV subtype A strain A2 (1540); test: cell-based or functional assay; remark: listed apart in the source
[8] = target: T3, RSV-F of RSV subtype B strain 1580; test: cell-based or functional assay; remark: listed apart in the source
[9] = target: RSV-F S173Y of escape mutant RSV/A S173Y (respiratory syncytial virus subtype A, …, UniProt P03420 26-574); test: cell-based or functional assay
[10] = target: RSV-F S173T of escape mutant RSV/B S173T (respiratory syncytial virus subtype B, …); test: cell-based or functional assay
[11] = target: RSV-F T174K of escape mutant RSV/B T174K (respiratory syncytial virus subtype B, …); test: cell-based or functional assay
[12] = target: RSV-F S173T/T174K of escape mutant RSV/B S173T/T174K (respiratory syncytial virus subtype B, …); test: cell-based or functional assay
[13] = target: T1, RSV-F of RSV subtype A strain A2 (1540); test: cell-based or functional assay; remark: listed apart in the source
[14] = target: T2, RSV-F of RSV subtype A strain Long; test: cell-based or functional assay; remark: listed apart in the source
[15] = target: T4, RSV-F of RSV subtype B strain 9320; test: cell-based or functional assay; remark: listed apart in the source
[16] = target: RSV-F of RSV subtype B strain 18537 (respiratory syncytial virus subtype B, …, UniProt P13843 26-574); test: cell-based or functional assay
[17] = target: RSV-F of RSV subtype B strain 1400 (respiratory syncytial virus subtype B, …); test: cell-based or functional assay
[18] = target: RSV-F of RSV subtype B strain 1A2 (respiratory syncytial virus subtype B, …); test: cell-based or functional assay
[19] = target: RSV-F of RSV subtype A clinical isolate A2001/2-20 (respiratory syncytial virus subtype A, …); test: cell-based or functional assay
[20] = target: RSV-F of RSV subtype A clinical isolate A2001/3-12 (respiratory syncytial virus subtype A, …); test: cell-based or functional assay
[21] = target: RSV-F of RSV subtype A clinical isolate A1997/12-35 (respiratory syncytial virus subtype A, …); test: cell-based or functional assay
[22] = target: RSV-F of RSV subtype A clinical isolate A1998/3-2 (respiratory syncytial virus subtype A, …); test: cell-based or functional assay
[23] = target: RSV-F of RSV subtype A clinical isolate A1998/12-21 (respiratory syncytial virus subtype A, …); test: cell-based or functional assay
[24] = target: RSV-F of RSV subtype A clinical isolate A2000/3-4 (respiratory syncytial virus subtype A, …); test: cell-based or functional assay
RSV-F.mmh = target: T5, RSV-F.mmh (Respiratory Syncytial Virus); test: SPR (Biacore), mAb captured via Fc, soluble RSV-F.mmh injected, 25 C
T5 construct: also called recombinant RSV-F; soluble monomeric RSV-F

Row | Binder | IC50 [pM] for RSV A2 Neutralization, Trial 1 [2] | IC50 [pM] for RSV A2 Neutralization, Trial 2 [2] | IC50 [pM] for RSV A2 Neutralization, Trial 3 [2] | IC50 [pM] for RSV A2 Neutralization, Trial 5 [2] | IC50 [pM] for RSV A2 Neutralization, Trial 6 [2] | IC50 [pM] for RSV A2 Neutralization, Trial 7 [2] | RSV-A2 (1540) Neutral. IC50 [pM] [3] | RSV-Long Neutral. IC50 [pM] [4] | RSV - 1580 Neutral. IC50 [pM] [5] | RSV-9320 Neutral. IC50 [pM] [6] | Neutralization IC50, pM (microneutralization, wt subtype A) [7] | Neutralization IC50, pM (microneutralization, wt subtype B) [8] | Neutralization IC50, pM (microneutralization, escape mutant) [9] | Neutralization IC50, pM (microneutralization, escape mutant) [10] | Neutralization IC50, pM (microneutralization, escape mutant) [11] | Neutralization IC50, pM (microneutralization, escape mutant) [12] | IC50 (pM), RSV micro-neutralization, A/A2 [13] | IC50 (pM), RSV micro-neutralization, A/Long [14] | IC50 (pM), RSV micro-neutralization, B/9320 [15] | IC50 (pM), RSV micro-neutralization, B/18537 [16] | also measured
1 | B1 | 1820 pM | 950 pM | 290 pM | 160 pM | 500 pM | 250 pM | 360 pM | 536 pM | 375 pM | 460 pM | 1140 pM | 1900 pM | 1710 pM | 1900 pM | 640 pM | 980 pM | 2080 pM | 752 pM | 338 pM | 1190 pM | IC50 of blocking viral fusion (antibody added after viral attachment at 4 C, infection read by ELISA) [1]: 1 nM; IC50 (pM), RSV micro-neutralization, B/1400 [17]: 113 pM; IC50 (pM), RSV micro-neutralization, B/1A2 [18]: 223 pM; IC50 (pM), RSV micro-neutralization, clinical isolate [19]: 935 pM; IC50 (pM), RSV micro-neutralization, clinical isolate [20]: 1260 pM; IC50 (pM), RSV micro-neutralization, clinical isolate [21]: 478 pM; IC50 (pM), RSV micro-neutralization, clinical isolate [22]: 344 pM; IC50 (pM), RSV micro-neutralization, clinical isolate [23]: 580 pM; IC50 (pM), RSV micro-neutralization, clinical isolate [24]: 899 pM; Kd (RSV-F.mmh): 38.1 nM; t½ (RSV-F.mmh): 4 min
2 | B2 | 50 pM | 30 pM | 23 pM | 12 pM | 12 pM | 12 pM | 14 pM | 65 pM | 43 pM | 56 pM | 108 pM | 260 pM | 170 pM | 177 pM | 108 pM | 218 pM | 202 pM | 83 pM | 76 pM | 187 pM | IC50 [pM] for RSV A2 Neutralization, Trial 4 [2]: 20 pM; RSV-A2 (1540) neutralization, Fold Improvement Relative to Control 1 [3]: 25 fold; RSV-Long neutralization, Fold Improvement Relative to Control 1 [4]: 8.2 fold; RSV - 1580 neutralization, Fold Improvement Relative to Control 1 [5]: 8.7 fold; RSV-9320 neutralization, Fold Improvement Relative to Control 1 [6]: 8.2 fold; IC50 (pM), RSV micro-neutralization, B/1400 [17]: 38 pM; IC50 (pM), RSV micro-neutralization, B/1A2 [18]: 40 pM; IC50 (pM), RSV micro-neutralization, clinical isolate [19]: 74 pM; IC50 (pM), RSV micro-neutralization, clinical isolate [20]: 129 pM; IC50 (pM), RSV micro-neutralization, clinical isolate [21]: 41 pM; IC50 (pM), RSV micro-neutralization, clinical isolate [22]: 36 pM; IC50 (pM), RSV micro-neutralization, clinical isolate [23]: 68 pM; IC50 (pM), RSV micro-neutralization, clinical isolate [24]: 88 pM
